Source: patent US20210032299A1
Starred links: 1 amine or outer side, 2 acyl side, 3 side chain; linkers in the order of their positions; H or OH if unused. Non-standard residues stand in square brackets, D forms with d. Groups on a side chain read outwards from the residue. No end group written: not given here. *: point of attachment. C20 diacid = O=C(O)CCCCCCCCCCCCCCCCCCC(=O)*; αMePhe(2-F) = C[C@](N)(Cc1ccccc1F)C(=O)O; γGlu = O=C(O)[C@H](CCC(=O)[*:2])N[*:1]; 4Pal = N[C@@H](Cc1ccncc1)C(=O)O; αMeL = CC(C)C[C@](C)(N)C(=O)O; AEEA = NCCOCCOCC(=O)O; Aib = CC(C)(N)C(=O)O

T1: human glucose-dependent insulinotropic polypeptide (GIP) receptor (human), P48546
T1 chain: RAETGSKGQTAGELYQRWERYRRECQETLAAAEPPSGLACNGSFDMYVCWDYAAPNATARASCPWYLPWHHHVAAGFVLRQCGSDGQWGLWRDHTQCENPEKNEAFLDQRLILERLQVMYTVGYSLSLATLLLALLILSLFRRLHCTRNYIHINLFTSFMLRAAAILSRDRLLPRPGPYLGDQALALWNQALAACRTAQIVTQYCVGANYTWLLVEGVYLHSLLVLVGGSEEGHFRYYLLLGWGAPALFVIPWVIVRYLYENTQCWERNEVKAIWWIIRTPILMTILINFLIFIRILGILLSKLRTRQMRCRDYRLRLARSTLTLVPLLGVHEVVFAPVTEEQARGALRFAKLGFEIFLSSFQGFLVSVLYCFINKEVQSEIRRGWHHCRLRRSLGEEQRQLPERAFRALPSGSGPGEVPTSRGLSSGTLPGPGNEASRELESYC

T2: human GLP-1 receptor (human), P43220
T2 chain: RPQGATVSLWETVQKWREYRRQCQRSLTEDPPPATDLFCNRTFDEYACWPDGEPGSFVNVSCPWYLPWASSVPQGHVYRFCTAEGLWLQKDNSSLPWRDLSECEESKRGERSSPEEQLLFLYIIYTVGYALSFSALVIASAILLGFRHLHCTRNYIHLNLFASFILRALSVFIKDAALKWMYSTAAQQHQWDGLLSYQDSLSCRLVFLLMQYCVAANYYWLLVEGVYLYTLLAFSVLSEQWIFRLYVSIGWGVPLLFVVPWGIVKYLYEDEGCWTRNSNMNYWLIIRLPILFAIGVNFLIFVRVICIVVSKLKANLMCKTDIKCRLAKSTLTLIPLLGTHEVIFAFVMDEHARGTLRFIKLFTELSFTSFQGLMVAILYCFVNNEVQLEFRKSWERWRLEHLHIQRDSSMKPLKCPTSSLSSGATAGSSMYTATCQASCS


Assays:
[1] = biological target: human glucagon receptor (human), P47871; assay: SPA, displacement of [125I]-Gcg from hGcgR membranes, 0.1% bacitracin
[2] = biological target: T1, human glucose-dependent insulinotropic …; assay: SPA, displacement of [125I]-GIP from hGIPR membranes, 0.1% bacitracin
[3] = biological target: T2, human GLP-1 receptor (human), P43220; assay: SPA, displacement of [125I]-GLP-1 from hGLP-1R membranes, 0.1% bacitracin

human glucagon receptor (human), P47871, sequence (P47871 26-477): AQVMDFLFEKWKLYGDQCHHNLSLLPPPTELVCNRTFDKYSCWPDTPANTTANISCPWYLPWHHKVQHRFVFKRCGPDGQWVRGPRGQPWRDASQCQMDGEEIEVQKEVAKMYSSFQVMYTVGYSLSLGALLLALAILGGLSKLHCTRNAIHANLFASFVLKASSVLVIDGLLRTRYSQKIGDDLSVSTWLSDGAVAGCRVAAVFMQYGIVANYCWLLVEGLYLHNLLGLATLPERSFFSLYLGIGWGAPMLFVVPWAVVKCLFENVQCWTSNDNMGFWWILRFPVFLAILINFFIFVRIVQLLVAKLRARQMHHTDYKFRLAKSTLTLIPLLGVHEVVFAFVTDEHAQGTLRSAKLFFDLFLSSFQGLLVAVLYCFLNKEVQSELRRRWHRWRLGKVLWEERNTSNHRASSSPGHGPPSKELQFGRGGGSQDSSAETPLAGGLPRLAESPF

Binder | Ki [1] [nM] | Ki [2] [nM] | Ki [3] [nM]
Y[Aib]EGTFISDYSI[αMeL]LDKIHQ[Aib]DFVEYK([AEEA-AEEA-γGlu-C20 diacid])LEAGPSSGAPPPS-NH2 (N-terminus assumed; SMILES CC[C@H](C)[C@H](NC(=O)[C@H](CCCCN)NC(=O)[C@H](CC(=O)O)NC(=O)[C@H](CC(C)C)NC(=O)[C@](C)(CC(C)C)NC(=O)[C@@H](NC(=O)[C@H](CO)NC(=O)[C@H](Cc1ccc(O)cc1)NC(=O)[C@H](CC(=O)O)NC(=O)[C@H](CO)NC(=O)[C@@H](NC(=O)[C@H](Cc1ccccc1)NC(=O)[C@@H](NC(=O)CNC(=O)[C@H](CCC(=O)O)NC(=O)C(C)(C)NC(=O)[C@@H](N)Cc1ccc(O)cc1)[C@@H](C)O)[C@@H](C)CC)[C@@H](C)CC)C(=O)N[C@@H](Cc1c[nH]cn1)C(=O)N[C@@H](CCC(N)=O)C(=O)NC(C)(C)C(=O)N[C@@H](CC(=O)O)C(=O)N[C@@H](Cc1ccccc1)C(=O)N[C@H](C(=O)N[C@@H](CCC(=O)O)C(=O)N[C@@H](Cc1ccc(O)cc1)C(=O)N[C@@H](CCCCNC(=O)COCCOCCNC(=O)COCCOCCNC(=O)CC[C@H](NC(=O)CCCCCCCCCCCCCCCCCCC(=O)O)C(=O)O)C(=O)N[C@@H](CC(C)C)C(=O)N[C@@H](CCC(=O)O)C(=O)N[C@@H](C)C(=O)NCC(=O)N1CCC[C@H]1C(=O)N[C@@H](CO)C(=O)N[C@@H](CO)C(=O)NCC(=O)N[C@@H](C)C(=O)N1CCC[C@H]1C(=O)N1CCC[C@H]1C(=O)N1CCC[C@H]1C(=O)N[C@@H](CO)C(N)=O)C(C)C) [Example 117] | 685 | 0.0722 | 591
H-Y[Aib]EGT[αMePhe(2-F)]ISDYSILLDKIHQ[Aib]DFVE[4Pal]K([AEEA-AEEA-γGlu-C20 diacid])LEGGPSSGAPPPS-NH2 (SMILES CC[C@H](C)[C@H](NC(=O)[C@H](CO)NC(=O)[C@H](Cc1ccc(O)cc1)NC(=O)[C@H](CC(=O)O)NC(=O)[C@H](CO)NC(=O)[C@@H](NC(=O)[C@](C)(Cc1ccccc1F)NC(=O)[C@@H](NC(=O)CNC(=O)[C@H](CCC(=O)O)NC(=O)C(C)(C)NC(=O)[C@@H](N)Cc1ccc(O)cc1)[C@@H](C)O)[C@@H](C)CC)C(=O)N[C@@H](CC(C)C)C(=O)N[C@@H](CC(C)C)C(=O)N[C@@H](CC(=O)O)C(=O)N[C@@H](CCCCN)C(=O)N[C@H](C(=O)N[C@@H](Cc1c[nH]cn1)C(=O)N[C@@H](CCC(N)=O)C(=O)NC(C)(C)C(=O)N[C@@H](CC(=O)O)C(=O)N[C@@H](Cc1ccccc1)C(=O)N[C@H](C(=O)N[C@@H](CCC(=O)O)C(=O)N[C@@H](Cc1ccncc1)C(=O)N[C@@H](CCCCNC(=O)COCCOCCNC(=O)COCCOCCNC(=O)CC[C@H](NC(=O)CCCCCCCCCCCCCCCCCCC(=O)O)C(=O)O)C(=O)N[C@@H](CC(C)C)C(=O)N[C@@H](CCC(=O)O)C(=O)NCC(=O)NCC(=O)N1CCC[C@H]1C(=O)N[C@@H](CO)C(=O)N[C@@H](CO)C(=O)NCC(=O)N[C@@H](C)C(=O)N1CCC[C@H]1C(=O)N1CCC[C@H]1C(=O)N1CCC[C@H]1C(=O)N[C@@H](CO)C(N)=O)C(C)C)[C@@H](C)CC) [Example 119] | 68.8 | 0.129 | 723
